In patent US20100285005A1 (Eli Lilly, published 2010):
Numbering of substitutions follows the chain as printed.

B1: Antibody III (antibody, human IgG4 S228P, kappa, F234A L235A, V domains shown)
VH: EVQLVESGGGLVQPGGSLRLSCAASGFTSTDYYFSWVRQAPGKGLEWVGFIRYKSKGYTTEYSGSVKGRFTISRDDSKNSLYLQMNSLKTEDTAVYYCAREPITTDPRDYWGQGTLVTVSS
VL: DIVMTQSPDSLAVSLGERATINCKSSQSLFNSRTRKKYLAWYQQKPGQPPKLLIYWASKRKSGVPDRFSGSGSGTDFTLTISSLQAEDVAVYYCKQSRFLRAFGQGTKLEIKR
notes: Human engineered anti-CXCR4 antibody; also called the antibody III
B2: Antibody IV (antibody, human IgG4 S228P, kappa, F234A L235A, V domains shown)
VH: B1 VH with Y53N, S55R
VL: B1 VL
B3: Antibody I (antibody, human IgG4 S228P, kappa, F234A L235A, V domains shown)
VH: B1 VH with Y53T
VL: B1 VL
B4: Antibody II (antibody, human IgG4 S228P, kappa, F234A L235A, V domains shown)
VH: B1 VH with Y53S
VL: B1 VL
B5: Antibody V (antibody, human IgG4 S228P, kappa, F234A L235A, V domains shown)
VH: B1 VH with Y53H
VL: B1 VL

Legend:
[1] = target: human CXCR4 receptor with a C-terminal linear C9 peptide tag (human); test: SPR (Biacore 2000), C9-tagged CXCR4 captured by 1D4 antibody, antibody injected, 4 °C
[2] = target: T1, human CXCR4, endogenous on human cells (CCRF-CEM leukemia cells; U937 histiocytic lymphoma cells) (human, UniProt P61073 1-352); test: inhibition of 125I-SDF-1α binding to CCRF-CEM cells expressing endogenous CXCR4 (SPA); antibody III's own average value
T1 construct: whole, on cells
Procedure: SDF-1 binding to CXCR4 is the first step in activating the CXCR4 intracellular signaling pathway. To determine if an antibody can block the interaction of SDF-1 and CXCR4, human leukemia CCRF-CEM cells expressing endogenous CXCR4 are used in an ¹²⁵I-labeled SDF-1α binding assay. The assay is performed in a 96-well U-bottom, non-treated polystyrene plate. The binding assay buffer is prepared with RPMI 1640 medium containing 10 mM N-2-hydroxyethylpiperazine-N′-2-ethanesulfonic acid (HEPES), pH 7.5, and 0.2% bovine serum albumin (BSA). Briefly, 200 μL reaction mixtures containing 300 pM ligand (60 pM ¹²⁵I-SDF-1α and 240 pM cold SDF-1α), different concentrations of the test antibody in assay buffer, 100,000 human CCRF-CEM cells, and 0.5 mg scintillation proximity assay (SPA) beads are incubated at room temperature for 2 hours. Plates are then counted in a liquid scintillation and luminescence counter in SPA mode. CXCR4 antagonists decrease the bound radioactivity in this assay in a dose-dependent manner. The inhibitory potency (IC₅₀) of a test antibody is calculated using GraphPad Prism software, based on the dose-dependent decrease of bound radioactivity.

[3] = target: T1, human CXCR4, endogenous on human cells …; test: cell-based or functional assay

T1 sequence (P61073 whole entry): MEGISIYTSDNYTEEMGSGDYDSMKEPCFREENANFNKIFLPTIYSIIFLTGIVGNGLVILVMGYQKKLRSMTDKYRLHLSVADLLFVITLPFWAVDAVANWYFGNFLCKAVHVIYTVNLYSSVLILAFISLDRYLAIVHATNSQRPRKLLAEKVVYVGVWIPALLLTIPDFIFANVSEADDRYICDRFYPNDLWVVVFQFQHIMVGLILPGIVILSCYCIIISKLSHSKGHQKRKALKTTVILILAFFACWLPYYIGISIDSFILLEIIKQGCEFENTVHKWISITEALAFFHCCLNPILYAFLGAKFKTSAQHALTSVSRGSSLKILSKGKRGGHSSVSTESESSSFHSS

Binder	Kd [1]	koff [1]	kon [1]	IC50 [2]	IC50, chemotaxis assay (SDF-1α-driven migration of U937 cells) [3]
B1	1.54 nM	0.00172 s⁻¹	1.12e+06 M⁻¹ s⁻¹	0.45 nM	–
B2	5.14 nM	0.00398 s⁻¹	774000 M⁻¹ s⁻¹	–	≤ 30 nM
B3	0.68 nM	0.00161 s⁻¹	2.36e+06 M⁻¹ s⁻¹	–	≤ 30 nM
B4	0.72 nM	0.00181 s⁻¹	2.5e+06 M⁻¹ s⁻¹	–	≤ 30 nM
B5	0.88 nM	0.00168 s⁻¹	1.91e+06 M⁻¹ s⁻¹	–	≤ 30 nM
